Measured values taken from publication PMC3391258 (PLoS ONE, 2012).
Changes are numbered by the printed parent chain. Names and notes keep the numbering of the source.

B1: HlyD-R186A tagged with c-Myc at the C-terminus (natural protein)
chain: MKTWLMGFSEFLLRYKLVWSETWKIRKQLDTPVREKDENEFLPAHLELIETPVSRRPRLVAYFIMGFLVIAFILSVLGQVEIVATANGKLTLSGRSKEIKPIENSIVKEIIVKEGESVRKGDVLLKLTALGAEADTLKTQSSLLQARLEQIRYQILSRSIELNKLPELKLPDEPYFQNVSEEEVLALTSLIKEQFSTWQNQKYQKELNLDKKRAERLTILARINRYENVSRVEKSRLDDFRSLLHKQAIAKHAVLEQENKYVEAANELRVYKSQLEQIESEILSAKEEYQLVTQLFKNEILDKLRQTTDSIELLTLELEKNEERQQASVIRAPVSGKVQQLKVHTEGGVVTTAETLMVIVPEDDTLEVTALVQNKDIGFINVGQNAIIKVEAFPYTRYGYLVGKVKNINLDAIEDQKLGLVFNVIVSVEENDLSTGNKHIPLSSGMAVTAEIKTGMRSVISYLLSPLEESVTESLHER
notes: also called HlyD-R186A-C-myc
B2: HlyD-T197A tagged with c-Myc at the C-terminus (natural protein)
chain: B1 chain with A186R, T197A
notes: also called HlyD-T197A-C-myc

Target: T1, TolC with a hexahistidine-tag at the C-terminus (E. coli, UniProt P02930 23-493)
T1 construct: also called TolC-His; hexa-His-tagged wild-type TolC; not shown: His6, C-terminal, kept
T1 sequence (looked up): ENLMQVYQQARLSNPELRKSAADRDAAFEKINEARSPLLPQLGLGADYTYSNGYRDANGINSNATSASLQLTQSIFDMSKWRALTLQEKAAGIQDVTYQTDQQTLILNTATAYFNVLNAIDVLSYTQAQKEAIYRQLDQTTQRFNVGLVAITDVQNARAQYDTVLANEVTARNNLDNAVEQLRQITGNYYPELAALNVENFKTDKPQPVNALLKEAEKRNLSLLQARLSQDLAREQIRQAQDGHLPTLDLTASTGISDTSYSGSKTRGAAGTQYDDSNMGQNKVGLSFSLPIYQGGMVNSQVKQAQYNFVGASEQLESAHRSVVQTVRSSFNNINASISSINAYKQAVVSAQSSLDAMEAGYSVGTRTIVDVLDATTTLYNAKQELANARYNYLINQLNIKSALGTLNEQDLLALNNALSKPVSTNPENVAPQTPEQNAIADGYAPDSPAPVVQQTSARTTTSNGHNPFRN
Test: cross-linking
Conditions: partners not purified

| Binder | crosslinking to TolC, percent of that of wild-type HlyD |
| --- | --- |
| B1 | 10 % of wild-type HlyD |
| B2 | 48 % of wild-type HlyD |
